As a reminder, the Kd is the concentration at which binding is half-saturated. In general, koff refers to the rate constant with which the complex falls apart. A low value points to a long-lived complex. For orientation: kon means the rate constant with which the complex forms. A high value points to faster complex formation.

This test addresses OsRMC-His (rice (Oryza sativa)). Description: BLI. (In general: Biolayer interferometry detects binding as a change in optical thickness at a sensor tip.)

For the substance “MoCel6A (analyte of the binding kinetics) (enzyme)”, the equilibrium dissociation constant (Kd) turned out to be 21.9 nM, the koff turned out to be 0.000845 s⁻¹ and the association rate constant (kon) is 38900 M⁻¹ s⁻¹.
